# Assay results reported in article PMC11828871, “Structural basis of anticancer drug recognition and amino acid transport by LAT1” (Nature Communications, 2025).
# B1: Fab fragment from clone 170 (Fab170) (Fab, V domains shown)
# VH: EVQLQQSGAELVKPGASVNLSCKASGYTFTNYWMHWVRLRPGQGLEWIGEIDPSDSYSYYSQNFKGKATLTVDQSSNTAYLQLTSLTSEDSAVYYCARGRQTYYPWFPYWGQGTLVTVSA
# VL: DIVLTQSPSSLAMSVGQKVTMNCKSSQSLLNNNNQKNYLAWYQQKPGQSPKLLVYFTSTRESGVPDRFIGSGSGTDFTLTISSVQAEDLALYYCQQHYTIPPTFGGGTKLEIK
# notes: Mouse monoclonal antibody raised against liposomes with purified LAT1–CD98hc; source: mouse hybridoma culture supernatant; IgG purified by Protein G column, digested by papain, Fab further purified on Protein A column
# Assays:
# CD98hc (4F2hc; SLC3A2) = target: T1, CD98hc (4F2hc; SLC3A2) (human, UniProt P08195); experiment: cryo-EM structure; LAT1–CD98hc in lipid nanodiscs (POPC:POPG:cholesterol 2:2:1, MSP2N2) complexed with Fab170, gel filtration; SEC buffer 20 mM Tris-HCl pH 9.0, 150 mM NaCl; with JPH203, L-Phe, melphalan, BCH, T3 or no ligand; settings: both partners purified
# T1 construct: CD98hc (4F2hc; SLC3A2), human, single membrane-spanning protein; The complex was purified by GFP-nanotrap and a FLAG-tag purification step was skipped; The TMD-only models hold only TM1' of CD98hc
# T1 sequence (P08195 102-630): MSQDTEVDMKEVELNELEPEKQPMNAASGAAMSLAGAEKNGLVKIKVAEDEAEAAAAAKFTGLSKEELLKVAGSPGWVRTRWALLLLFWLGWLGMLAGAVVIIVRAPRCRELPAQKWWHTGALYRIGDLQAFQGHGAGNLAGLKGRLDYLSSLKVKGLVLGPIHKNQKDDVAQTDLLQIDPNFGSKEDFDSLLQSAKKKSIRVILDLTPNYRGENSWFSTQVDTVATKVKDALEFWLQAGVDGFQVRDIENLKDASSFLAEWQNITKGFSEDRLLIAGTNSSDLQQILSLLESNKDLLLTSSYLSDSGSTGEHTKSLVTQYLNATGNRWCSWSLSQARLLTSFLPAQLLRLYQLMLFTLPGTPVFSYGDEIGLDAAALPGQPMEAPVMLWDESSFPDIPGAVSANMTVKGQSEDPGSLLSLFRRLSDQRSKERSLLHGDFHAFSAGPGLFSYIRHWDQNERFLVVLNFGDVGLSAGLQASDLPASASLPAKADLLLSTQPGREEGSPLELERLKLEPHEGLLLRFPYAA
# [1] = target: T2, LAT1–CD98hc heterodimeric complex (human, UniProt Q01650;P08195); experiment: as above; settings: both partners purified
# T2 construct: LAT1 (SLC7A5), human; as the chain of m1; CD98hc (4F2hc; SLC3A2), human; as the chain of m2
# T2 sequence (Q01650 whole entry, chain 1 of 2): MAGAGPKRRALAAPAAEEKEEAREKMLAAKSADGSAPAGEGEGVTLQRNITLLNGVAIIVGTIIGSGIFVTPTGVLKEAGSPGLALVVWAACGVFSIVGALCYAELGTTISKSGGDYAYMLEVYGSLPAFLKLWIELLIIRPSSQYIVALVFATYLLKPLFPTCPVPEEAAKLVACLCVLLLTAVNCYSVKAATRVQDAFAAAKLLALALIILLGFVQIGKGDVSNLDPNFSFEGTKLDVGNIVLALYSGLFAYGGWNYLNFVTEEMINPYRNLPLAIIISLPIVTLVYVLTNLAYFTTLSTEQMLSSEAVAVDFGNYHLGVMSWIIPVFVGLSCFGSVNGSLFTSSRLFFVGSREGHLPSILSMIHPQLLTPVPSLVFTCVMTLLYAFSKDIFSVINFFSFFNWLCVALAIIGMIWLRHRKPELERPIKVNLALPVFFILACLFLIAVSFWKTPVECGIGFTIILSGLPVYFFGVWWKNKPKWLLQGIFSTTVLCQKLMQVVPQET
# T2 sequence (P08195 102-630, chain 2 of 2): as the sequence (P08195 102-630) above
binder,measurement,setting,value
B1,binding result,CD98hc (4F2hc; SLC3A2),binds
same,binding result,[1],binds
